From PMC10540216, “Activity Guided Azide-methyllysine Photo-trapping for Substrate Profiling of Lysine Demethylases” (Journal of the American Chemical Society, 2023)

B1: SF3B1_HUMAN (protein, UniProt O75533 1-1304, looked up)
Splicing factor 3B subunit 1: MAKIAKTHEDIEAQIREIQGKKAALDEAQGVGLDSTGYYDQEIYGGSDSRFAGYVTSIAATELEDDDDDYSSSTSLLGQKKPGYHAPVALLNDIPQSTEQYDPFAEHRPPKIADREDEYKKHRRTMIISPERLDPFADGGKTPDPKMNARTYMDVMREQHLTKEEREIRQQLAEKAKAGELKVVNGAAASQPPSKRKRRWDQTADQTPGATPKKLSSWDQAETPGHTPSLRWDETPGRAKGSETPGATPGSKIWDPTPSHTPAGAATPGRGDTPGHATPGHGGATSSARKNRWDETPKTERDTPGHGSGWAETPRTDRGGDSIGETPTPGASKRKSRWDETPASQMGGSTPVLTPGKTPIGTPAMNMATPTPGHIMSMTPEQLQAWRWEREIDERNRPLSDEELDAMFPEGYKVLPPPAGYVPIRTPARKLTATPTPLGGMTGFHMQTEDRTMKSVNDQPSGNLPFLKPDDIQYFDKLLVDVDESTLSPEEQKERKIMKLLLKIKNGTPPMRKAALRQITDKAREFGAGPLFNQILPLLMSPTLEDQERHLLVKVIDRILYKLDDLVRPYVHKILVVIEPLLIDEDYYARVEGREIISNLAKAAGLATMISTMRPDIDNMDEYVRNTTARAFAVVASALGIPSLLPFLKAVCKSKKSWQARHTGIKIVQQIAILMGCAILPHLRSLVEIIEHGLVDEQQKVRTISALAIAALAEAATPYGIESFDSVLKPLWKGIRQHRGKGLAAFLKAIGYLIPLMDAEYANYYTREVMLILIREFQSPDEEMKKIVLKVVKQCCGTDGVEANYIKTEILPPFFKHFWQHRMALDRRNYRQLVDTTVELANKVGAAEIISRIVDDLKDEAEQYRKMVMETIEKIMGNLGAADIDHKLEEQLIDGILYAFQEQTTEDSVMLNGFGTVVNALGKRVKPYLPQICGTVLWRLNNKSAKVRQQAADLISRTAVVMKTCQEEKLMGHLGVVLYEYLGEEYPEVLGSILGALKAIVNVIGMHKMTPPIKDLLPRLTPILKNRHEKVQENCIDLVGRIADRGAEYVSAREWMRICFELLELLKAHKKAIRRATVNTFGYIAKAIGPHDVLATLLNNLKVQERQNRVCTTVAIAIVAETCSPFTVLPALMNEYRVPELNVQNGVLKSLSFLFEYIGEMGKDYIYAVTPLLEDALMDRDLVHRQTASAVVQHMSLGVYGFGCEDSLNHLLNYVWPNVFETSPHVIQAVMGALEGLRVAIGPCRMLQYCLQGLFHPARKVRDVYWKIYNSIYIGSQDALIAHYPRIYNDDKNTYIRYELDYIL
B2: PRP16_HUMAN (protein, UniProt Q92620 2-1227, looked up)
Pre-mRNA-splicing factor …: GDTSEDASIHRLEGTDLDCQVGGLICKSKSAASEQHVFKAPAPRPSLLGLDLLASLKRREREEKDDGEDKKKSKVSSYKDWEESKDDQKDAEEEGGDQAGQNIRKDRHYRSARVETPSHPGGVSEEFWERSRQRERERREHGVYASSKEEKDWKKEKSRDRDYDRKRDRDERDRSRHSSRSERDGGSERSSRRNEPESPRHRPKDAATPSRSTWEEEDSGYGSSRRSQWESPSPTPSYRDSERSHRLSTRDRDRSVRGKYSDDTPLPTPSYKYNEWADDRRHLGSTPRLSRGRGRREEGEEGISFDTEEERQQWEDDQRQADRDWYMMDEGYDEFHNPLAYSSEDYVRRREQHLHKQKQKRISAQRRQINEDNERWETNRMLTSGVVHRLEVDEDFEEDNAAKVHLMVHNLVPPFLDGRIVFTKQPEPVIPVKDATSDLAIIARKGSQTVRKHREQKERKKAQHKHWELAGTKLGDIMGVKKEEEPDKAVTEDGKVDYRTEQKFADHMKRKSEASSEFAKKKSILEQRQYLPIFAVQQELLTIIRDNSIVIVVGETGSGKTTQLTQYLHEDGYTDYGMIGCTQPRRVAAMSVAKRVSEEMGGNLGEEVGYAIRFEDCTSENTLIKYMTDGILLRESLREADLDHYSAIIMDEAHERSLNTDVLFGLLREVVARRSDLKLIVTSATMDAEKFAAFFGNVPIFHIPGRTFPVDILFSKTPQEDYVEAAVKQSLQVHLSGAPGDILIFMPGQEDIEVTSDQIVEHLEELENAPALAVLPIYSQLPSDLQAKIFQKAPDGVRKCIVATNIAETSLTVDGIMFVIDSGYCKLKVFNPRIGMDALQIYPISQANANQRSGRAGRTGPGQCFRLYTQSAYKNELLTTTVPEIQRTNLANVVLLLKSLGVQDLLQFHFMDPPPEDNMLNSMYQLWILGALDNTGGLTSTGRLMVEFPLDPALSKMLIVSCDMGCSSEILLIVSMLSVPAIFYRPKGREEESDQIREKFAVPESDHLTYLNVYLQWKNNNYSTIWCNDHFIHAKAMRKVREVRAQLKDIMVQQRMSLASCGTDWDIVRKCICAAYFHQAAKLKGIGEYVNIRTGMPCHLHPTSSLFGMGYTPDYIVYHELVMTTKEYMQCVTAVDGEWLAELGPMFYSVKQAGKSRQENRRRAKEEASAMEEEMALAEEQLRARRQEQEKRSPLGSVRSTKIYTPGRKEQGEPMTPRRTPARFGL
B3: RRP44_HUMAN (protein, UniProt Q9Y2L1 1-958, looked up)
Exosome complex exonuclease …: MLKSKTFLKKTRAGGVMKIVREHYLRDDIGCGAPGCAACGGAHEGPALEPQPQDPASSVCPQPHYLLPDTNVLLHQIDVLEDPAIRNVIVLQTVLQEVRNRSAPVYKRIRDVTNNQEKHFYTFTNEHHRETYVEQEQGENANDRNDRAIRVAAKWYNEHLKKMSADNQLQVIFITNDRRNKEKAIEEGIPAFTCEEYVKSLTANPELIDRLACLSEEGNEIESGKIIFSEHLPLSKLQQGIKSGTYLQGTFRASRENYLEATVWIHGDNEENKEIILQGLKHLNRAVHEDIVAVELLPKSQWVAPSSVVLHDEGQNEEDVEKEEETERMLKTAVSEKMLKPTGRVVGIIKRNWRPYCGMLSKSDIKESRRHLFTPADKRIPRIRIETRQASTLEGRRIIVAIDGWPRNSRYPNGHFVRNLGDVGEKETETEVLLLEHDVPHQPFSQAVLSFLPKMPWSITEKDMKNREDLRHLCICSVDPPGCTDIDDALHCRELENGNLEVGVHIADVSHFIRPGNALDQESARRGTTVYLCEKRIDMVPELLSSNLCSLKCDVDRLAFSCIWEMNHNAEILKTKFTKSVINSKASLTYAEAQLRIDSANMNDDITTSLRGLNKLAKILKKRRIEKGALTLSSPEVRFHMDSETHDPIDLQTKELRETNSMVEEFMLLANISVAKKIHEEFSEHALLRKHPAPPPSNYEILVKAARSRNLEIKTDTAKSLAESLDQAESPTFPYLNTLLRILATRCMMQAVYFCSGMDNDFHHYGLASPIYTHFTSPIRRYADVIVHRLLAVAIGADCTYPELTDKHKLADICKNLNFRHKMAQYAQRASVAFHTQLFFKSKGIVSEEAYILFVRKNAIVVLIPKYGLEGTVFFEEKDKPNPQLIYDDEIPSLKIEDTVFHVFDKVKVKIMLDSSNLQHQKIRMSLVEPQIPGISIPTDTSNMDLNGPKKKKMKLGK
B4: IPO5_HUMAN (protein, UniProt O00410 2-1097, looked up)
Importin-5: AAAAAEQQQFYLLLGNLLSPDNVVRKQAEETYENIPGQSKITFLLQAIRNTTAAEEARQMAAVLLRRLLSSAFDEVYPALPSDVQTAIKSELLMIIQMETQSSMRKKVCDIAAELARNLIDEDGNNQWPEGLKFLFDSVSSQNVGLREAALHIFWNFPGIFGNQQQHYLDVIKRMLVQCMQDQEHPSIRTLSARATAAFILANEHNVALFKHFADLLPGFLQAVNDSCYQNDDSVLKSLVEIADTVPKYLRPHLEATLQLSLKLCGDTSLNNMQRQLALEVIVTLSETAAAMLRKHTNIVAQTIPQMLAMMVDLEEDEDWANADELEDDDFDSNAVAGESALDRMACGLGGKLVLPMIKEHIMQMLQNPDWKYRHAGLMALSAIGEGCHQQMEGILNEIVNFVLLFLQDPHPRVRYAACNAVGQMATDFAPGFQKKFHEKVIAALLQTMEDQGNQRVQAHAAAALINFTEDCPKSLLIPYLDNLVKHLHSIMVLKLQELIQKGTKLVLEQVVTSIASVADTAEEKFVPYYDLFMPSLKHIVENAVQKELRLLRGKTIECISLIGLAVGKEKFMQDASDVMQLLLKTQTDFNDMEDDDPQISYMISAWARMCKILGKEFQQYLPVVMGPLMKTASIKPEVALLDTQDMENMSDDDGWEFVNLGDQQSFGIKTAGLEEKSTACQMLVCYAKELKEGFVEYTEQVVKLMVPLLKFYFHDGVRVAAAESMPLLLECARVRGPEYLTQMWHFMCDALIKAIGTEPDSDVLSEIMHSFAKCIEVMGDGCLNNEHFEELGGILKAKLEEHFKNQELRQVKRQDEDYDEQVEESLQDEDDNDVYILTKVSDILHSIFSSYKEKVLPWFEQLLPLIVNLICPHRPWPDRQWGLCIFDDVIEHCSPASFKYAEYFLRPMLQYVCDNSPEVRQAAAYGLGVMAQYGGDNYRPFCTEALPLLVRVIQSADSKTKENVNATENCISAVGKIMKFKPDCVNVEEVLPHWLSWLPLHEDKEEAVQTFNYLCDLIESNHPIVLGPNNTNLPKIFSIIAEGEMHEAIKHEDPCAKRLANVVRQVQTSGGLWTECIAQLSPEQQAAIQELLNSA
B5: KRT83_HUMAN (protein, UniProt P78385 1-493, looked up)
Keratin, type II cuticular Hb3: MTCGFNSIGCGFRPGNFSCVSACGPRPSRCCITAAPYRGISCYRGLTGGFGSHSVCGGFRAGSCGRSFGYRSGGVCGPSPPCITTVSVNESLLTPLNLEIDPNAQCVKQEEKEQIKSLNSRFAAFIDKVRFLEQQNKLLETKLQFYQNRECCQSNLEPLFAGYIETLRREAECVEADSGRLASELNHVQEVLEGYKKKYEEEVALRATAENEFVALKKDVDCAYLRKSDLEANVEALIQEIDFLRRLYEEEIRILQSHISDTSVVVKLDNSRDLNMDCIVAEIKAQYDDIATRSRAEAESWYRSKCEEMKATVIRHGETLRRTKEEINELNRMIQRLTAEVENAKCQNSKLEAAVAQSEQQGEAALSDARCKLAELEGALQKAKQDMACLIREYQEVMNSKLGLDIEIATYRRLLEGEEQRLCEGVEAVNVCVSSSRGGVVCGDLCVSGSRPVTGSVCSAPCNGNLVVSTGLCKPCGQLNTTCGGGSCGQGRH
B6: PYC_HUMAN (protein, UniProt P11498 21-1178, looked up)
Pyruvate carboxylase, …: TAPAASPNVRRLEYKPIKKVMVANRGEIAIRVFRACTELGIRTVAIYSEQDTGQMHRQKADEAYLIGRGLAPVQAYLHIPDIIKVAKENNVDAVHPGYGFLSERADFAQACQDAGVRFIGPSPEVVRKMGDKVEARAIAIAAGVPVVPGTDAPITSLHEAHEFSNTYGFPIIFKAAYGGGGRGMRVVHSYEELEENYTRAYSEALAAFGNGALFVEKFIEKPRHIEVQILGDQYGNILHLYERDCSIQRRHQKVVEIAPAAHLDPQLRTRLTSDSVKLAKQVGYENAGTVEFLVDRHGKHYFIEVNSRLQVEHTVTEEITDVDLVHAQIHVAEGRSLPDLGLRQENIRINGCAIQCRVTTEDPARSFQPDTGRIEVFRSGEGMGIRLDNASAFQGAVISPHYDSLLVKVIAHGKDHPTAATKMSRALAEFRVRGVKTNIAFLQNVLNNQQFLAGTVDTQFIDENPELFQLRPAQNRAQKLLHYLGHVMVNGPTTPIPVKASPSPTDPVVPAVPIGPPPAGFRDILLREGPEGFARAVRNHPGLLLMDTTFRDAHQSLLATRVRTHDLKKIAPYVAHNFSKLFSMENWGGATFDVAMRFLYECPWRRLQELRELIPNIPFQMLLRGANAVGYTNYPDNVVFKFCEVAKENGMDVFRVFDSLNYLPNMLLGMEAAGSAGGVVEAAISYTGDVADPSRTKYSLQYYMGLAEELVRAGTHILCIKDMAGLLKPTACTMLVSSLRDRFPDLPLHIHTHDTSGAGVAAMLACAQAGADVVDVAADSMSGMTSQPSMGALVACTRGTPLDTEVPMERVFDYSEYWEGARGLYAAFDCTATMKSGNSDVYENEIPGGQYTNLHFQAHSMGLGSKFKEVKKAYVEANQMLGDLIKVTPSSKIVGDLAQFMVQNGLSRAEAEAQAEELSFPRSVVEFLQGYIGVPHGGFPEPFRSKVLKDLPRVEGRPGASLPPLDLQALEKELVDRHGEEVTPEDVLSAAMYPDVFAHFKDFTATFGPLDSLNTRLFLQGPKIAEEFEVELERGKTLHIKALAVSDLNRAGQRQVFFELNGQLRSILVKDTQAMKEMHFHPKALKDVKGQIGAPMPGKVIDIKVVAGAKVAKGQPLCVLSAMKMETVVTSPMEGTVRKVHVTKDMTLEGDDLILEIE

These molecules were tested on KDM4A-I71AzF (assay: CASI: photo-crosslinking with HEK293T cell extracts, StrepTactin enrichment and LC-MS/MS proteomics). Details: sheet "Final results but with 0.01".
Format: binding, human
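Note: lysates from HEK293T cells pretreated with a KDM4 inhibitor to raise proteome methylation, affinity-purified after ±UV, gel-resolved, trypsin-digested, with exclusive unique peptides per protein averaged per condition.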

**Q.** B1 was tested. Which “Fold change (+UV/-UV)” value did it give?
**A.** The value was 2.

**Q.** How did the “Fold change (+UV/-UV)” value turn out when B2 was run?
**A.** The value was 0.

**Q.** With B3 as the molecule, how does the “Fold change (+UV/-UV)” value read?
**A.** Its value is 0.6.

**Q.** For B4, which “Fold change (+UV/-UV)” value is on record?
**A.** Its value is 1.

**Q.** Which “Fold change (+UV/-UV)” value does the source give for B5 here?
**A.** Its value is 10.

**Q.** For B6, which “Fold change (+UV/-UV)” value is on record?
**A.** Its value is 0.3333.
